From patent US7118889 (US Dept. of Health and Human Services, dated 2006)

Columns and labels:
[1] = biological target: T1, p85 subunit of PI3K, endogenous, Jurkat T cells (human, UniProt P27986 2-724); test: anti-myc immunoprecipitation from C305-stimulated stable Jurkat transfectants, immunoblot
T1 construct: mature; also called p85 subunit of PI-3 kinase
Experimental: (§1) Exogenous LAT was immunoprecipitated with anti-myc antibody from cells either left unstimulated or stimulated with C305 (1:50). Samples were analyzed on SDS-PAGE and blotted with 4G10. The same membrane was also blotted with anti-PLC-γ1, anti-p85, anti-Grb2, anti-SOS, and anti-LAT after stripping.
(§2) Myc-tagged LAT was immunoprecipitated with anti-myc antibody from unstimulated or C305 stimulated transfectants. […] The myc-tagged LAT appears as a doublet as does endogenous LAT. […] In addition, mutations at Y171 and Y191 prevented the association of SLP-76, Vav and Cbl, but the 70 kDa tyrosine-phosphorylated protein remained associated with LAT. […] The association with SOS was also disrupted by the double Y to F mutations.

[2] = biological target: T2, Cbl, endogenous, Jurkat T cells (human, UniProt P22681 1-906, tyrosine phosphorylated in stimulated cells); test: as above
T2 construct: also called Cbl (120 kD); c-cbl
Experimental: as §1, §2

[3] = biological target: T3, Vav, endogenous, Jurkat T cells (human, UniProt P15498 1-845, tyrosine phosphorylated in stimulated cells); test: as above
T3 construct: also called Vav (100 kD)
T3 sequence (looked up): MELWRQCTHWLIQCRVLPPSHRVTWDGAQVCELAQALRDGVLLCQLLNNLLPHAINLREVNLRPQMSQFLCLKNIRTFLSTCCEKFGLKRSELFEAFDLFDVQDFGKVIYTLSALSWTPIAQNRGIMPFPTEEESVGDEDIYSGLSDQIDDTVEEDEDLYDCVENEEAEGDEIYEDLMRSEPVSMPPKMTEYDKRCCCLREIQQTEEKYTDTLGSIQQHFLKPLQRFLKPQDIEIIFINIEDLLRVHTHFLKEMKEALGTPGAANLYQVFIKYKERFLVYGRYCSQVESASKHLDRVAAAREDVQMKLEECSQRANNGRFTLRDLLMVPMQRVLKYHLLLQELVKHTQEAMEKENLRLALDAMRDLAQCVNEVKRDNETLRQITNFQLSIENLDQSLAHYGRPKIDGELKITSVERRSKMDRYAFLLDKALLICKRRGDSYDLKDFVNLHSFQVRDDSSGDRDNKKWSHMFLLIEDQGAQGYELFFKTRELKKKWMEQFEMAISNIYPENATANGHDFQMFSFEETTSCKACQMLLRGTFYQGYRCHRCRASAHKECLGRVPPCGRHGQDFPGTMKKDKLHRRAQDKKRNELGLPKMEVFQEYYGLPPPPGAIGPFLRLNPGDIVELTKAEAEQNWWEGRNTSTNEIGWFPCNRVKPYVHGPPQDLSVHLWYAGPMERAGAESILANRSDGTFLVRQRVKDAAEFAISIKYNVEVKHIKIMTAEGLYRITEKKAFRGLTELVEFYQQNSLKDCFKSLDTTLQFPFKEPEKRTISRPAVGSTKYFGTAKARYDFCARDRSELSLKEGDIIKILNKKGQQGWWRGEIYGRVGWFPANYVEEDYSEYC
Experimental: as §1, §2

[4] = biological target: T4, SLP-76, endogenous, Jurkat T cells (human, UniProt Q13094 1-533, tyrosine phosphorylated in stimulated cells); test: as above
T4 construct: mature; also called 76 kD protein; SH2-domain Leukocyte Protein
T4 sequence (looked up): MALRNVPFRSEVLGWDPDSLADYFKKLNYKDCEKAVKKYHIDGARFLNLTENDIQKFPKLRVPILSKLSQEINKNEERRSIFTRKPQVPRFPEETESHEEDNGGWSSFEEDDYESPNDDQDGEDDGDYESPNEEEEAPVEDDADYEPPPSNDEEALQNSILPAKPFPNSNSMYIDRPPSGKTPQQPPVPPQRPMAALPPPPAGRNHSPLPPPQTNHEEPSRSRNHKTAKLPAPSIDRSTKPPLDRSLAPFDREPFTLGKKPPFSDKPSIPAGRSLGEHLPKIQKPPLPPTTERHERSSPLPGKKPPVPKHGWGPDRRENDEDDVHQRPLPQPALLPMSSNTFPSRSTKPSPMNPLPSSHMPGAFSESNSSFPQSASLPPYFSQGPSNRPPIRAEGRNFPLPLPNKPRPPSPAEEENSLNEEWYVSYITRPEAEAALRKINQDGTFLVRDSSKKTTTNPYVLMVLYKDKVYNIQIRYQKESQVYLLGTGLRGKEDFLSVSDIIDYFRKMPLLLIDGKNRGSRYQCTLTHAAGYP
Experimental: as §1, §2

[5] = biological target: T5, Grb2, endogenous (293T cells and Jurkat T cells) (human, UniProt P62993 1-217); test: as above
T5 construct: Endogenous protein of human cell lines; also called endogenous Grb2; Grb2 linker protein
Experimental: as §1, §2

[6] = biological target: Lck protein tyrosine kinase (transfected in 293T cells) (UniProt P06239 2-509, limits assumed); test: co-immunoprecipitation from transfected 293T cells
Experimental: Figure 4B: FIG. 4(B) is a representative immunoblot, showing association of LAT with signaling molecules in 293T cells. FLAG-tagged LAT was cotransfected with pCEFL/HA-Grb2, pSRα/Grap-myc, pcDNA3/HA-p85 and pcDNA3/PLC-γ1 in the absence or presence of ZAP-70 and Lck PTKs. Brij lysates of transfected 293T cells were immunoprecipitated with anti-FLAG, and association of LAT with tested proteins was determined by blotting with specific antibodies.
In this example, association of LAT with Grb2, Grap, PI3K and PLC-γ1 is shown in 293T cells. To investigate the association of LAT with critical signaling molecules, FLAG-tagged LAT in the pcDNA3 vector was cotransfected in 293T cells with plasmids expressing HA-tagged Grb2, Myc-tagged Grap, HA-tagged p85 subunit of PI3K or PLC-γ1, in the presence or absence of both ZAP-70 and Lck. LAT was immunoprecipitated with anti-FLAG antibody, and associated proteins were detected by blotting with specific antibodies. […] When LAT and the two PTKs were coexpressed with HA-tagged Grb2, both endogenous Grb2 and HA-Grb2 bound to phosphorylated LAT (HA-Grb2 migrates more slowly than endogenous Grb2 on SDS-PAGE). Myc-tagged Grap, the Grb2-like protein, when coexpressed with LAT in the presence of the two PTKs, also associated with phosphorylated LAT. […] HA-tagged p85 or PLC-γ1 also associated with phosphorylated LAT. […]

Measured: binding result

T5 sequence (P62993 whole entry): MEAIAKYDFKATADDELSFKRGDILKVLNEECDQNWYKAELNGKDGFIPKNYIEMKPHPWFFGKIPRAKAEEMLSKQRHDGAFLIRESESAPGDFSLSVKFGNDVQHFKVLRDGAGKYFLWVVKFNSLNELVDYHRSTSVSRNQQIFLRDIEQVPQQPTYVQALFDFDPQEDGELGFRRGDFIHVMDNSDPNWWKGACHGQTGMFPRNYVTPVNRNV
T1 sequence (P27986 2-724): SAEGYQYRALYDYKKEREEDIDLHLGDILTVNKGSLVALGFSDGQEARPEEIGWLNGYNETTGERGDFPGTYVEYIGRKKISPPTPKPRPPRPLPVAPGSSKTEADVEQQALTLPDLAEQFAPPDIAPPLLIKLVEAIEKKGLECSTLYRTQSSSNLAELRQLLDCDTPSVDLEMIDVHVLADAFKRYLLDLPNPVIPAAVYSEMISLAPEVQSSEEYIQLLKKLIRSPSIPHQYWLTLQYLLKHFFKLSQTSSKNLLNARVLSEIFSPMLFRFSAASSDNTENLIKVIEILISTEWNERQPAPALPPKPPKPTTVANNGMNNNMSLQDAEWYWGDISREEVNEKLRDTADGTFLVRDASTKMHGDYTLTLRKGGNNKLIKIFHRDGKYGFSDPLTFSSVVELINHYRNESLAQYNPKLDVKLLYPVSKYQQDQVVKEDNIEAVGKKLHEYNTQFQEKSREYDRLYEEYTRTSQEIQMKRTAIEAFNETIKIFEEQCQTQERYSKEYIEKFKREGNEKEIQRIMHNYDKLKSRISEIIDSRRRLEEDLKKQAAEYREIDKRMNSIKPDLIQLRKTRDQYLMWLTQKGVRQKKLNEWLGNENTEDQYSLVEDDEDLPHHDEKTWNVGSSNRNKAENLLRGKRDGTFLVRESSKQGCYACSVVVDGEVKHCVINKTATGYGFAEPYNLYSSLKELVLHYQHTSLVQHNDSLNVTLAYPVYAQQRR
Chain of Lck protein tyrosine kinase (transfected in 293T cells) (P06239 2-509 limits assumed): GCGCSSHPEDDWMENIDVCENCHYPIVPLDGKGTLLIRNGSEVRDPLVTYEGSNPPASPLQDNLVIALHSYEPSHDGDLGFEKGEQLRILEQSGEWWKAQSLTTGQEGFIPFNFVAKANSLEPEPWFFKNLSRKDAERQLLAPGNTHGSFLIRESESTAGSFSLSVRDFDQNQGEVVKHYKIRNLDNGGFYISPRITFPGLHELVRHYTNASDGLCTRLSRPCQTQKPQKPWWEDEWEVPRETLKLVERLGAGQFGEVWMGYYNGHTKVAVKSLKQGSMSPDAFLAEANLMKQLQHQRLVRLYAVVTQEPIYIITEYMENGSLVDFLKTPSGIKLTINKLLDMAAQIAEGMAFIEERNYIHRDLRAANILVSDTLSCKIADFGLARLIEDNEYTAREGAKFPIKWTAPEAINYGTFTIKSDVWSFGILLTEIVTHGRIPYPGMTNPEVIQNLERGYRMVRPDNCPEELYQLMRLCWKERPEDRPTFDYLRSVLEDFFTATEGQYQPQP

B1: myc-tagged mutant LAT (Y171/191F), stably expressed in Jurkat cells, C305 stimulated (other)
chain: MEEAILVPCVLGLLLLPILAMLMALCVHCHRLPGSYDSTSSDSLYPRGIQFKRPHTVAPWPPAYPPVTSYPPLSQPDLLPIPRSPQPLGGSHRTPSSRRDSDGANSVASYENEEPACEDADEDEDDYHNPGYLVVLPDSTPATSTAAPSAPALSTPGIRDSAFSMESIDDFVNVPESGESAEASLDGSREFVNVSQELHPGAAKTEPAALSSQEAEEVEEEGAPDYENLQELNSMEQKLISEEDLN
modifications: tyrosine phosphorylated upon stimulation at residues other than Y171 and Y191, less than WT
notes: also called mLAT
not listed: [6]
no binding: all other assays above

B2: FLAG-tagged LAT, tyrosine phosphorylated (co-expressed in 293T cells with Syk, or with ZAP-70 and Lck or Fyn) (other)
chain: MEEAILVPCVLGLLLLPILAMLMALCVHCHRLPGSYDSTSSDSLYPRGIQFKRPHTVAPWPPAYPPVTSYPPLSQPDLLPIPRSPQPLGGSHRTPSSRRDSDGANSVASYENEEPACEDADEDEDDYHNPGYLVVLPDSTPATSTAAPSAPALSTPGIRDSAFSMESIDDYVNVPESGESAEASLDGSREYVNVSQELHPGAAKTEPAALSSQEAEEVEEEGAPDYENLQELNDYKDDDDK
modifications: tyrosine phosphorylated by co-expressed PTKs; sites not mapped
notes: Made by replacing the Pst I/Cla I fragment of LAT with an oligonucleotide encoding FLAG; also called phosphorylated LAT
no binding: [6]
